Experimental data reported in patent publication US20240082816A1.
One block for each substance: values may come before it.

How the values were obtained:
IgG [1] = assay: affinity precipitation: C12-VVEE to binding molecule 50:1, binding molecule to IgG 10:1, 1 M ammonium sulfate
IgG [2] = assay: affinity precipitation: co-assembled with C12-VVEE at 10:1, binding molecule to IgG 10:1, 1 M ammonium sulfate, IgG in the supernatant by ProA column
IgG [3] = assay: affinity precipitation: C12-VVEE to binding molecule 50:1, binding molecule to IgG 10:2, 1 M ammonium sulfate
[4] = biological target: therapeutic human IgG1 (human); assay: affinity precipitation: 5 mM C12-Z33 with 20 µM IgG1, 0.6 M Na2SO4, absorbance of the supernate at 280 nm
[5] = biological target: therapeutic human IgG1 (human); assay: ITC, 15 °C, PBS pH 7.4, reported per ligand
[6] = biological target: therapeutic human IgG1 (human); assay: ITC, 15 °C, PBS pH 7.4, reported per IgG1

IgG precipitation yield (IgG [1]): 99%
IgG precipitated out from the solution (IgG [2]): 30%
IgG precipitation yield (IgG [3]): 75%
Substance: C12-VVKKGG-Z33 binding molecule (peptide)

IgG1 removed from the supernate [4]: > 60%
Substance: C12-Z33 immuno-amphiphile (self-assembled immunofibers) (peptide)

-TΔS° [5]: 13.6 kcal/mol
Kd [5]: 60 nM
ΔG° [5]: -9.5 kcal/mol
ΔH° [5]: -23.1 kcal/mol
-TΔS° [6]: 43.4 kcal/mol
ΔG° [6]: -10 kcal/mol
ΔH° [6]: -53.4 kcal/mol
Substance: Z33 peptide
